In PMC11729874, “How J-chain ensures the assembly of immunoglobulin IgM pentamers” (The EMBO Journal, 2024):

Key:
[1] = target: murine Cμ4tp domain, recombinant (mouse); assay: SEC; analytical SE-HPLC, Superdex 200 Increase 10/300, PBS pH 7.4, 25 °C; 1 mg/mL Cµ4tp (DTT removed) and/or 0.5 mg/mL J chain (if not stated otherwise) incubated 24 h at room temperature
[2] = target: the molecule itself; assay: nonreducing SDS-PAGE and western blot of covalent assemblies; HEK293/HEK293T co-transfected with H-Cµ234tp and JC variants, 48 h; RIPA lysates with 10 mM NEM and TCA-precipitated supernatants; Halo ligands, anti-JC, anti-µ
[3] = target: murine Cμ4tp domain, recombinant (mouse); assay: SEC; analytical SE-HPLC, Superdex 200 Increase 10/300, PBS pH 7.4, 25 °C; 1 mg/mL Cµ4tp (DTT removed) and/or 0.5 mg/mL J chain (if not stated otherwise) incubated 24 h at room temperature; remark: listed apart in the source
[4] = target: the molecule itself; assay: cross-linking; disulfide mapping of recombinant JC by cross-linking MS: denatured, alkylated with iodoacetamide, trypsin and Asp-N, HPLC-MS/MS, Kojak with disulfide as crosslinker

## murine Cμ4tp domain, recombinant (domain or fragment)
[1]
  stoichiometry N: 2 chains
  stoichiometry N (Cµ4tp2 dimers): 6

B1: Halo-tagged truncated µs variant lacking the variable and first constant domains (H-Cµ234tp) (domain or fragment, UniProt P01872 106-454, looked up)
chain: VAEMNPNVNVFVPPRDGFSGPAPRKSKLICEATNFTPKPITVSWLKDGKLVESGFTTDPVTIENKGSTPQTYKVISTLTISEIDWLNLNVYTCRVDHRGLTFLKNVSSTCAASPSTDILTFTIPPSFADIFLSKSANLTCLVSNLATYETLNISWASQSGEPLETKIKIMESHPNGTFSAKGVASVCVEDWNNRKEFVCTVTHRDLPSPQKKFISKPNEVHKHPPAVYLLPPAREQLNLRESATVTCLVKGFSPADISVQWLQRGQLLPQEKYVTSAPMPEPGAPGFYFTHSILTVTEEEWNSGETYTCVVGHEALPHLVTERTVDKSTGKPTLYNVSLIMSDTGGTCY
notes: secretory Ig µ heavy chain without the variable and first constant domains: Cµ2, Cµ3, Cµ4 and the tailpiece; the gene carries a signal peptide; Detected with anti-mouse IgM (µ chain); also called Halo-Cµ234tp; H-Cµ234tp WT; source: HEK293/HEK293T or HeLa-ERp44KO, transfected, in lysate or supernatant
[2]
  stoichiometry N: 6 H-Cµ234tp2 subunits (dimers)

B2: murine Joining Chain wild type, recombinant (natural protein, mouse)
chain: MGDDEATILADNKCMCTRVTSRIIPSTEDPNEDIVERNIRIVVPLNNRENISDPTSPLRRNFVYHLSDVCKKCDPVEVELEDQVVTATQSNICNEDDGVPETCYMYDRNKCYTTMVPLRYHGETKMVQAALTPDSCYPD
notes: methionine added at position 1; murine joining chain (J chain), G22-D159 of the precursor; Heterogeneous native and non-native disulfides; largely unstructured by CD; also called JC; J chain
[3]
  stoichiometry N (JC per (Cµ4tp2)5): 1
[4]
  binding result: binds
